Laboratory results from a protein production outcome set (Wang et al. 2014).

Assay: label from the status in PepcDB records

Sequence	protein production
MDKYLRLLSQGDRLGLTLIRLSIAIVFIWIGLLKFVPYEADSITPFVANSPFMSFFYEHPEEYRQHLTHEGELKPEERAWQTANNTYAFSDGLGVVELIIAALVLANPVSRWLGLAGGVLAFLTPFVTLSFLITTPEVWVMPLGDAHYGFPYLSGAGRLVLKDTLMLAGAVMIMADSARSLLLQRQ	failed
SLSRTVHHQQTAEITQQAADFIRYMNAINDYLYQHPERRAAGGQLTSAQLGLPATKNVSHLISQQRVFVWAKEKPGLMGALLEQSGDSALLARVENGRLLDTHGRRISITLPAVIPDQVIIWMN	not failed
MTARARSALLDAEHIVGYTTYVELLPDEITEGADDIYNTPMCGEVSRTEEAIDRALAGNDVAIIGSGDPNVYALAGLALEIIESKGATATMLDFDVVPGVP	failed
MGPKVSVITVCYNAEEFIENAIYSVLNQSYENIEYIIIDGASKDNTVSIINKYRSVMACFISEPDKGMYEAMNKGIKAATGDILYFLNSDDVFYDEYVVENVVKVFQKNNNVELIYGPIIIRDPTTNESFIKPHDYITKSYFIYNSICQQGIFYKASVFNKCGQFNDTYKIVGDYEWELRAFYKYNIKRKYYEGIIAIFRDGGMCNCDKFSDLHAKERTKVIKEYFNIFVIYKYKFLLFCRSAIKRLELEHHHHHH	failed
EAPVRVIVVHGLGTHSGALWPLVAAIEGADLAAIDLPKTPLYDDWLRLLESFISSEDDGRPLILIGAGTGGLLCAEAAHRTGLVAHVIATCLLNPSDQPTRRALFRFSPLTRLIQGRLRNREIPVTRVLNFSKISRSPALSKLCAADEFSGASKITWGFLASYVQHKAKLGAVPVTLMHPDHDLLTPVELSLRTLSRLKAPTDVVMLKDCGHFPIEEPGFTTMLETVTSVIARNS	failed
MNAIRYTKRECKDEKKITEFLNKARTGFLGLSTNDQPYVIPLNFVWHNHAIYFHGASEGRKIKMIEANPEVCFTICEDLGTIVSPVPAHTDTAYMSVIIFGTIEPVSAIEEGTEAMQQMLDKYVPGYYHSPLAASHVEKYRSSLGSRTAIYKISCRERTAKVNEPIESLKFYPGRNVSVDKDSR	not failed
MTNVLWLQGGACSGNTMSFLNAEEPTVCDLIADFGIKVLWHPSLGLELGDNVQTLLWDCILGKIPLDILVFEGTVVNAPNGTGEWNRFADRPMKDWLNDLAQAASFVVAVGDCATWGGIPAMEPNPSESQGLQFLKRKEGGFLGKDFRAKSGLPVINIPGCPSHPDWITQILVAIATGRIGDIALDELNRPQTFFNTFTQTGCTRNVHFAYKATTAEFGQRKGCLFYDLGCRGPMTHSSCNRILWNRVSSKTRAGMPCLGCTEPEFPFFDLKPGTVFKTQTIMGVPKELPPGVSNKNYAVLTMVAKDTAPKWAEEDFFTV	failed
MCHSGTFHLTAGESVEWVLTWAPSFEPHPPMPDYTRSLESTLSFWASWVEELPHQRLYDAEVRRSMLVLRALTDLQTGGIVAAPTTSLPEDFGGIRNWDYRYVWLRDSALTIEALVEYGFSQAALQWRTWLLRAIAGDPENLRIMYGLGGERHLPERELQHLRGYENSVPVRVGNGAAEQYQADVVGEVMVALETIRRAGCLEDEFSWGMQKAILDFQEANFDRKDQGIWEMRSEPQYFTHGRAMMWAGFDRGIKAIEEFNLDGPIERWRELRAKLREEIMTNGFNEEIQSFTQCYDNTQVDASLLQLAQIGFIGFDDPKMLSTVARIEQELLDAHGFLHRYHTDGSDGLAGDEYPFLICSFWLVEQYASSNRLDEAKEKMNRILAVQSPLGLLAEEYSTHHGRLAGNYPQAFSHIGLISAARAINFEEARNRLEHHHHHH	failed
MEADRGRNNKVRCAVVDTNVLMYVYLNKADVVGQLREFGFSRFLITASVKRELEKLEMSLRGKEKVAARFALKLLEHFEVVETESEGDPSLIEAAEKYGCILITNDKELKRKAKQRGIPVGYLKEDKRVFVELLD	not failed
RDSLFICAVATTETSRIPGITGAGASPELTEYTPAADVELIVHDAPRCLPEIPQTIVEGEAAPTPAVITKAALELAEVPFMVADAGASVKPDVPYININSEPGGDIRTGRAVTEPQRIYERGLMVGRTLSSLTEHLVVGESTPAGTTTALGVLTALGYDADFRVSASMPHNPHDLKREVVMAGLSNAGIEKGDCSREPFRAVEAVGDPMIPAVAGICMGSTVPVTLAGGTQMTAVCALMRAIDPDFDFSDTAIATTIFVAEDSTSDINRIAEQIGDIDIYVVDPDFGSASHRGLHEYLNGSVKEGVGAGGAMLLALLH	failed
MSRPTVSVIIPTHNRAKLLKRAIISVLNQTFEDFEIIVVDDASSDNTPNIIESIKDSRIRYIRLEKNSGAPTARNIGIKKARGKFIALLDDDDEWLPRKLEVQVKKFNELEKKFGVVYGGFYYVSQQNERIIGKRLPRFRGNVYGELLKENFIGSPTVLIRRECFKKAGLFDPKLPSSQDWDMWVRIARYYYFDYIVAKYYVHGHQISFNINEKYIPGREIFISKHKDIANNPKILSMHLTQMGLLSILGGNIEKGVKYLAQSITISPLNIDSYKKVIELTLDSRFLEYVKNILHANYLEHHHHHH	failed
MSKIWSKEETLWSFALYGTAVGAGTLFLPIQLGSAGAIVLFITALVAWPLTYWPHKALSQFILSANIAPGTGITGAVNHYYGKKIGNLITGLYFLAFFVVVLIYAVAITNSLAEQVAHRTPMTPGLRALLSLGVVLVLNLIFLMGRQVTIKVMGFLVFPLIACFLFLSLYLIRDWHPEHLTSQMQFSPQTLHQVWISIPVMVFAFSHTPIISTFAIDQQEKHGDLAMGKCKKIMKVAYTIICASVLFFVFSCLLAIPATYIETARDQGVTILSALSMVPGAPGWLAVTGIIVAVVAMSKSFLGTYFGVIEGASEIVKSSLGLLGVRKSRAFNRAMSILLVSAFTFAVCFINPNAISMIYAISGPLIAMILFIMPTLSTWLIPALKPYRSVGNAITLVVGLLCVSVMFFG	failed
MDGSPARPVPLVPDAAPAAPGRGRLAALTLLTLGFFAANSLLARAALRPGLADPATFTAIRLASGAAALGGLALASRRARPRGGSAGSALALFAYAAAFSLAYRRIDAGPGAFLLFFAVQASMIGWSVLRGARPTRRQWAGLAVALAGLGWLTLPGAHAPDARGAALMLAAGVAWGAYTLRGRGVRDPAGATAANFALAVPLALCLVIASAGTLHLTARGAALAAASGAVASGVGYVLWYTVVPALGAARAAAVQLAVPAMVPLAAAGLLGEAITPRLLAAGTAILAGVALAIAPAARGGAFTRALSSRAGSAVERPPR	failed
MLLDVKFTKNTCTKLIGLWLKFFLFYSLLPFSTSAQEASFRFKRLGLEDGLSQISVNGIAQDVNGFIWFATQDGLNKYDGYQITTYRHQPSDPNSIINNHIHSIFKDSKHNLWIGSYGGLSKYEPKTDNFTHYNSPSLNDSDGKVGYIQSLFEDSDGELWLSSNMGLYRYSIDTNTYILYLPDDNKPNSVIHSEIKSIAEDSIGNIWIGTTIGVSKYNKRNNTFTNYQHSPENPHSLSNNFVLKIYKDSQNNLWFGTFGGGLDRYDNDTSKFVHHRTNTQNKNSLGNNYIRTILEDSAGMLWLGTNNGLYAFDSSKLIFQRFRHSVNDRHSLSHDVIYSLFQDKDGSLWAGTLGGGVNLFRPSTNVFKHYKSNPNNPESLNANMVYAIYDDDEYVWVGTSGGGLNKLNKTTGKFSNFTEPETSVGLGLNKVNYIIKASEAELWLSTNSDGLLKYNKNTGNITQYKHHPDDRNSLSNNRARGLAIDKEGNLWIGTAGGGLNKLDPISGQFTHFMPDTDNPNSISTNFIRCLLYDSKGRLWTGSYGQGLNRFDFDTQTFINFNKDSVKEPILSNKFIRSIFEDKSGNIWVLTNGGIIKYDESKGSFHSYTTTDGLPSNVVYGALEDQKNNLWLSTNNGLSKFNPQNITFENYTKEEGIQENEFNTGSFFKNKTGEMYFGGINGFTLFHPDKIKKDKTIPTVSFTNLLLYNDAIAIGESERFSSHISSTNALNFAHNDDVITFEFSALSYSQANNISYRYQLQGFSDNWIETDHNHRRATFTNLSKGDYILKVKASNRNRSWGEETTDLRITIAAAYWETTWFRGLLLAIGFIVFVIAIKWREKALNNQNLVLDIMVKERTKELESSQEYSNKLEKLVQKRTLNLQKANTALEQSSITDALTGIRNRRFLDQQLSSDWAIQSRNNLPLSILMIDIDYFKKYNDYYGHQQGDECLQKIAKEIQSVINRPTDNLCRYGGEEFVVITYNDAEGAKHIAKLILKKLDELALVHLTSDKGIVSVSIGLGTMVPSIEVAPARLLKYADDALYQAKNNGRDQLC	failed
MKKIISLALALALSASAAELKMATTTSTDNTGLLDALKPLYEKESGNTLKWVAVGTGAALKMGEDCNADVLFVHSPKAEKEFMKKGFGVDRTPVMYNDFIIIADKSLASKFKGKNLKESLELIKNEKLTFISRGDKSGTDNKEKSLWKNLGGVPEKQSWYQQSGQGMLASIKIAEEKKGVILTDRGTYIKYEANEKGKPNLVIVNEGDDSLKNFYSVIATNPKHCKNVNYTEASKFIKWVTSDKTLNFIADFKLLNKPLFVIDAKTRKD	failed
MALHPTDYFRKERIFVDRETCIDNFRRFIQNSNNQDYNALFYYGIAGIGKSKLQHKLQNILNTEYPEMLWVSMDLENDTHRNVSTFLIALRNKIQKKCNVRFYKFNLAHAIFSKKSRPDIPLNKETYPMLKEDGFFYEILNSLNETAFGPFISIPVKRIVDIINQAPGNVRRHFGELPIDINKLESMEAHEIEKKLPGIFAADFTGSLGTNSRACIFIDTYEAIWKGWRGIGSFSEKDKWIRKCLIPNMPGVSWVICGRKQIKSLWIKDEQDWEMCMKEYPIEDLPEEYSEQFLKEYIEEEDIRSVIVKASEGVPCYLNLSVDTYEQVSRIKKPEVKDFPNTKIEVFEKFVKYLDNNEKRTLYILSAPNSWDRNLFKKLINEFNPTYSIYEFSDLIKYSFVKKITDEKFSLHQLMRKNLQEYQDPTYRKDVHLFLHEYYSNKIKDVDVRSITQEHEISLIEAYYHAREVLKFEDLGGWIAKYTEPFNEAGYWKTIYPMIEDFAEILKEKFGPDNIYYGIFVRKLAFLNEDRGKYNEAIFYYQQVLKIFEKNMGKKILENNDLVVDDHSIAMVTNDLANCYLSIGEYEKALTLQQNSLKTVQNKVNKDPLYIALLQQNIALTYQYLGQYNKAMELCQEALTVREACLGEEDLEVAKTAENLAVIHQQLGNYKEAFALAKRALNIREKKLGSKHPLVATNLSSLGVLCIIMGNLEEGLKYNQRAVKIAEERFEGDHISVAETLSNLGATYQYMLRYDDALEAYQRALNITEHSLGLENPKLVNILNNIAETYRKMENYEKALEFYQRALDIARNHLGKEHPTIALIMNNLGRLYMNTKEFDKAHTICQQALDIRGKTLGTDHVDFAITSLDLGIIYGCVGRRDYALPLLEHSLRIFEQKLGSDHIYTKNAKLVVDTLKESR	failed
